Series [1] deals with T1, L7Ae (Archaeoglobus fulgidus, UniProt O29494 SEQ:21-139). Description: EMSA; no band increase at 0-500 nM protein. The conditions noted are these: tags: His tag (pET-28b+, NdeI/XhoI); label: 32P. On the procedure:
(§1) The reaction of L7Ae with Box C/D, Box C/D mini, or Box C/D minimut was performed at a final concentration of 10 nM, 25 nM, or 25 nM RNA, respectively. The reaction was performed as follows under conditions involving 10 nM or 25 nM RNA, 20 mM Hepes-KOH, 150 mM KCl, 1.5 mM MgCl₂, 2 mM DTT, 0.001 U/mL tRNA, 3% glycerol, and 0 to 500 nM protein. First, 1 μL of ³²P-labeled RNA was denatured at 80° C. for 5 minutes and then supplemented with 4 μL of 5×binding buffer (100 mM Hepes-KOH (pH 7.5), 750 mM KCl, 7.5 mM MgCl₂, 10 mM DTT, 0.005 U/ρL tRNA, 15% glycerol) and ultrapure water. Then, the solution was mixed with the protein to adjust the whole amount to 20 μL. The reaction solution was left on ice for 60 minutes. 2 μL of dye (0.25% BPB, 0.25% XC, 30% glycerol) was added thereto, and the mixture was electrophoresed on a 8% nondenaturing polyacrylamide gel at 4° C. for 3 to 4 hours. Then, the gel was dried for 1 hour using a gel drier and analyzed for its radiation dose intensity using Bio-Imaging Analyzer (BAS2500; FUJIFILM) (FIGS. 4 and 5).
(§2) As a result, both Box C/D and Box C/D mini were confirmed to increase the band in an L7Ae protein concentration-dependent manner.

Series [2] concerns the target T2, ThrRS (threonyl-tRNA synthetase) (Escherichia coli, UniProt P0A8M3 SEQ:13-654). Description: EMSA; 50 mM KCl, 5 mM MgCl2, 0-40 uM protein; stronger than Domain 2. The conditions noted are these: tags: His tag (pQE-30); label: 32P. As to the method: (§3) The reaction of ThrRS with Domain 234 or Domain 2 was performed as follows under conditions involving final concentrations of 20 nM RNA, 25 mM Hepes-KOH, 50 mM KCl, 5 mM MgCl₂, 1 mM DTT, 5% glycerol, and 0 to 40 μM protein. First, […] ³²P-labeled RNA was denatured at 80° C. for 5 minutes and then supplemented with 4 μL of 5×binding buffer ([…], 250 mM KCl, 25 mM MgCl₂, 5 mM DTT, 25% glycerol) and ultrapure water. Then, the solution was mixed with the protein to adjust the whole amount to 20 μL. The reaction solution was left on ice for 60 minutes. 2 μL of dye (0.25% BPB, 0.25% XC, 30% glycerol) was added thereto, and the mixture was electrophoresed on a 12% nondenaturing polyacrylamide gel at 4° C. for 3 to 4 hours. Then, the gel was dried for 1 hour using a gel drier and analyzed for its radiation dose intensity using Bio-Imaging Analyzer (BAS2500; FUJIFILM) (FIGS. 6 and 7).
(§4) As a result, both ThrRS Domain 234 and ThrRS Domain 2 were confirmed to increase the band in a ThrRS protein concentration-dependent manner. […] As is also evident from the degree of band smear, Domain 234 has stronger binding than only Domain 2.

Series [3] concerns the target T1, L7Ae. Description: EMSA; 150 mM KCl, 1.5 mM MgCl2, tRNA competitor, 0-500 nM protein, on ice. The settings on record: tags: His tag (pET-28b+, NdeI/XhoI); label: 32P. On the procedure: as §1, §2
The target in series [4] is T2, ThrRS (threonyl-tRNA synthetase). The series can be described thus: EMSA; 50 mM KCl, 5 mM MgCl2, 0-40 uM protein; supershift suggests dimer; weaker than Domain 234. The conditions noted are these: tags: His tag (pQE-30); label: 32P. On the procedure:
as §3, §4

Series [5] addresses T1, L7Ae. Description: EMSA; 150 mM KCl, 1.5 mM MgCl2, tRNA competitor, 0-500 nM protein, on ice. The settings on record: tags: His tag (pET-28b+, NdeI/XhoI); label: 32P. On the procedure: as §1
The source holds these as a separate data set.

T1 sequence (O29494 whole entry): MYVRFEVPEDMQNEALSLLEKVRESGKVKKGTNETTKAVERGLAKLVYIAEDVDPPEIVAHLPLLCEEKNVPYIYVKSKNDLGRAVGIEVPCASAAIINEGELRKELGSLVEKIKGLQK
T2 sequence (P0A8M3 whole entry, the tested form may be a part): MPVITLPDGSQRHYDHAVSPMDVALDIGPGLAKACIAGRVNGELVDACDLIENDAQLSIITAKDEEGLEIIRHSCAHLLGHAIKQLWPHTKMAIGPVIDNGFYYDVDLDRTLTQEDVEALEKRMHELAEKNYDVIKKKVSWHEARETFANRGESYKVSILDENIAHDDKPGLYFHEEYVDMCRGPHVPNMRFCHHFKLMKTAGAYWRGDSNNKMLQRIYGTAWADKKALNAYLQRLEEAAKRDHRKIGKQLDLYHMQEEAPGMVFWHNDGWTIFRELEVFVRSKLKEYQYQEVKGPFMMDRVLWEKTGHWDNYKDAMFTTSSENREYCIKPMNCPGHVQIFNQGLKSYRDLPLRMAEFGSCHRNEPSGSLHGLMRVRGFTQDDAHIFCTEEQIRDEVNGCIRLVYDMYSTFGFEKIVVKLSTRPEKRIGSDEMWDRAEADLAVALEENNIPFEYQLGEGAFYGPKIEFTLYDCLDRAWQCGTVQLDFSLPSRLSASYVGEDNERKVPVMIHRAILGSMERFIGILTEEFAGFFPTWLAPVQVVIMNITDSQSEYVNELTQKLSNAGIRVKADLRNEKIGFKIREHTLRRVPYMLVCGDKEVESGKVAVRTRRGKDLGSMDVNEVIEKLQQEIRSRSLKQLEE

With GGGCGUCAUGCGAAAGCUGCCCC (ssRNA) [Box C/D minimut], the binding result in series [1] is given as “no binding”.

B1: ThrRS Domain 234 (ssRNA)
RNA: GGAUUGCGAACCAAUUUAGCAUUUGUUGGCUGCAAAUGGUUUCGCAAUGAACUGUUAAUAAACAAAUUUUUCUUUGUAUGUGAUCUUUCGUGUGGGUCACCACUGCAAA
On to B1, for which, in series [2], the binding result is on record as “binds”. GGGCGUGAUGCGAAAGCUGACCC (ssRNA) [Box C/D mini]: the binding result in series [3] is reported as “binds”. In the case of GGCGUAUGUGAUCUUUCGUGUGGGUCACCACUGCGCC (ssRNA) [ThrRS Domain 2], the binding result in series [4] is given as “binds”.

B2: Box C/D (ssRNA)
RNA: GGCCAGAGUGGGCGUGAUGCAUGUCUAGGAAACUAGACAUGCUGACCCACUCUGGCC
On to B2, for which, in series [5], the binding result is on record as “binds”.

The values are drawn from patent US20110040077, “Protein-Responsive Translational Regulatory System Using RNA-Protein Interacting Motif” (JAPAN SCIENCE AND TECHNOLOGY AGENCY, published 2011).
